Data reported in patent US20230192765A1, “PEPTIDES TARGETING SHP2 AND USES THEREOF” (UNIVERSITÀ DEGLI STUDI DI ROMA "TOR VERGATA", priority 2020, published 2023).
Where two headings read alike, the source gives them in different places. Primed or numbered codes have the meaning given here. [ ]: non-standard residue; d: D form. 5,6‑carboxyfluorescein″ = CF is 5,6 carboxyfluorescein; CF = 5,6-carboxyfluorescein, N-terminal label; pY = N[C@@H](Cc1ccc(OP(=O)(O)O)cc1)C(=O)O

Assays:
N-SH2 domain of SHP2 = target: T1, N-SH2 domain of SHP2 (Homo sapiens, UniProt Q06124); test: Fluorescence anisotropy direct binding assay, N-SH2 domain; conditions: N-SH2 domain; direct binding
T1 construct: constructs of the N-SH2 (residues 2-111), C-SH2 (109-217) and PTP (212-528) domains; His6 (esaHis); made in house; host or cells: E. coli (DE3) Rosetta2
T1 sequence (Q06124 2-111): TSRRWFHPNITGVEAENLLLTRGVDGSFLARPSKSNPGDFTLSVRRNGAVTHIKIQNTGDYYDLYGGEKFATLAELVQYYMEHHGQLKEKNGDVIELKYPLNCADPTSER
Method: Anisotropy measurements were carried out using a Horiba Fluoromax 4 spectrofluorimeter.
For the binding assays, the requested peptide amount (1 nM or 0.1 nM) was diluted in buffer (HEPES 10 mM, NaCl 150 mM, EDTA 1 mM, TCEP 1 mM, fluorescence buffer henceforth) and its anisotropy signal was recorded. The peptide was then titrated with increasing protein amounts, until the anisotropy signal reached a plateau at its maximum value, or up to a protein concentration where protein aggregation and consequent light scattering affected the anisotropy values (usually above 1 µM). The measurements of CF-labeled peptides were carried out using an excitation wavelength of 470 nm and collecting the anisotropy values at an emission wavelength of 520 nm. A 495 nm emission filter was used. For the Cy3-labeled peptides, excitation and emission wavelengths of 520 and 560 nm were used.
The Kd values were obtained fitting the data with the following equation, described in Van der Weert 2011, which avoids the need for the commonly used (but often unjustified) approximation of the concentration of unbound protein with the total concentration:
Here, [P]T and [L]T are the total protein and ligand concentrations, while r, ro and rmax are the anisotropy values at a given protein concentration, in the absence of protein and when the peptide is completely bound, respectively.

[1] = system: protein array of 97 human SH2 domains; test: SH2 domain microarray; format: binding; conditions: peptide 0.5, 5.0, 50 nM
Method: (§1) The microarray experiment was conducted by the Protein Array and Analysis Core at the MD Anderson Cancer Center (University of Texas, USA), as previously described [Roth 2019]. Briefly, a library of SH2 domains [Huang 2008] was expressed as GST fusion in E. coli and purified on glutathione-sepharose beads. The domains were spotted onto nitrocellulose-coated glass slides (Oncyte Avid slides, Grace Bio-Labs) using a pin arrayer [Espejo 2002]. Each domain was spotted in duplicate.

N-SH2 domain of SHP1 = target: T2, N-SH2 domain of SHP1 (Homo sapiens, UniProt P29350); test: SH2 domain microarray, SHP1; format: binding; conditions: peptide 0.5, 5.0, 50 nM
T2 construct: host or cells: E. coli
T2 sequence (P29350 4-100 limits assumed): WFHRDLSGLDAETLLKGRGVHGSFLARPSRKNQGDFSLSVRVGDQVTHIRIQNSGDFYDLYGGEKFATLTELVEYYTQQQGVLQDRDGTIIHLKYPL
Method: as §1

NIH3T3 cells [2] = test: Cell uptake experiments (FACS); format: cell-based; conditions: TAT linked to the C-terminus
Method: Cell uptake experiments were performed on NIH3T3 cells. About 200,000 cells were seeded on six-well plates and cultured in Dulbecco’s modified Eagle’s medium supplemented with 10% heat-inactivated fetal bovine serum (Gibco) and 1 % penicillin-streptomycin, at 37° C. with 5% CO2.
Two different strategies were followed. In a first set of experiments, the fluorescent peptide has been incubated with the cell-penetrating peptide (CPP) Pep-1. A Pep-1 stock solution was prepared by dissolving the peptide in ultrapure water. The fluorescent peptide was diluted in PBS from the DMSO stock solution. The peptides were mixed and incubated for 30 minutes at room temperature in a final volume of 400 µl. The conditions for cell delivery were optimized by investigating different cargo to CPP ratios. The mixture was then added to the cells, washed with PBS, together with 600 µl of serum-free medium (volumes for one well are reported). After one hour, 10% of fetal bovine serum (FBS) was added.
(§2) Cells were incubated for different times and then washed, collected and stained with SYTOX blue (1 mM, Invitrogen™) to identify the viable population and the green fluorescence of CFP9W5 was recordered to measure peptide uptake. Data were analysed with Kaluza Analysis Software (Beckman Coulter).
A second set of measurement was carried out using the TAT-conjugated peptide analog. […]

NIH3T3 cells [3] = test: Peptide toxicity in the cell uptake experiments (Sytox); format: cell-based; conditions: all the concentrations tested
Method: Cell viability in the FACS experiment was determined by using Sytox fluorescence.
as §2

[4] = target: C-SH2 domain of SHP2 (residues 109-217), recombinant (human) (UniProt Q06124); test: fluorescence anisotropy direct binding
[5] = target: C-SH2 domain of SHP2 (residues 109-217), recombinant (human) (UniProt Q06124); test: fluorescence anisotropy direct binding, labelled peptide titrated with protein
[6] = target: N-SH2 domain of SHP2 (residues 2-111), recombinant (human) (UniProt Q06124); test: as above
[7] = system: T3, BTAM peptide (PTPNS1 bisphosphotyrosyl-containing motif, with 4 N-terminal G residues)
T3 sequence: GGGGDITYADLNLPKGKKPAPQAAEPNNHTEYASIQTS

[8] = system: T4, EGFR Y1016 phosphopeptide (VDADEpYLIPQQ)
T4 sequence: VDADEYLIPQQ

[9] = system: T5, GAB1 Y657 phosphopeptide (DKQVEpYLDLDL)
T5 sequence: DKQVEYLDLDL

P8 (LN-pY-IDLDL) = system: T6, P8 (LN-pY-IDLDL)
T6 sequence: LNYIDLDL

P8W5 (LN-pY-IDLDW) = system: T7, P8W5 (LN-pY-IDLDW)
T7 sequence: LNYIDLDW

[10] = system: T8, p190A/RhoGAP Y1105 phosphopeptide (EEENIpYSVPHD)
T8 sequence: EEENIYSVPHD

[11] = system: pathogenic variants of SHP2; conditions: literature [Sun 2018; LaRochelle 2018]; cited from earlier work
[12] = format: in vitro ADME; conditions: human serum, up to 90 minutes, 37° C.
Method: (§3) The peptides were dissolved in DMSO (C=5 mg/mL). In eppendorf tubes, 1 mL of HEPES buffer (C = 25 mM, pH = 7.6) was temperature equilibrated at 37° C. before adding 250 µL of human serum and 20 µL of peptide solution; the reaction was followed for 90 minutes. At fixed intervals, 100 µL of the solution were withdrawn and added to 200 µL of absolute ethanol. These samples were kept on ice for 15 minutes, then centrifuged at 13,000 rpm for 5 minutes; the supernatant solutions were analyzed by HPLC and HPLC-MS with 20-60% B gradient in 20 minutes to follow the reaction. In parallel, samples containing peptide, buffer and ethanol only were also analyzed, too. A degradation resistance test was also conducted in DMEM (Dulbecco’s Modified Eagle Medium). The experimental conditions are similar to those described above; the reaction was followed for 72 hours. The enzymatic degradation resistance tests were followed by HPLC using a 5-50% B gradient in 20 minutes.

[13] = Peptide stability in DMEM; format: in vitro ADME; conditions: three days
Method: as §3

[14] = system: zebrafish embryos injected with Shp2a-D61G mRNA; test: In vivo zebrafish rescue experiments, Shp2a-D61G embryos
Method: (§4) One cell stage zebrafish embryos were injected with a mixture of 120 ng/µl of mRNA encoding either GFP-2A-Shp2-D61G or GFP-2A-Shp2-wt (as a control), with or without OP, at 0.3 µM, 3 µM and 5 µM concentration. Embryos were selected based on proper GFP expression and imaged at 11 hours post fertilization (hpf) in their lateral position using the Leica M165 FC stereomicroscope. Images were analyzed using ImageJ [Schneider 2012], by measuring the ratio of the major and minor axis from a minimum of 31 embryos. Statistical analysis was performed in GraphPad Prism, using the analysis of variance (ANOVA) complemented by Tukey’s honest significant difference test (Tukey’s HSD). To measure the survival of injected embryos, a minimum of 48 embryos per group were grown up to 4 days post fertilization (dpf) and counted at 1 dpf and 4 dpf. Survival curves were plotted using GraphPad Prism, and the differences between samples were determined using the Log-rank (Mantel-Cox) test.

[15] = system: zebrafish embryos injected with Shp2a-WT mRNA; test: In vivo zebrafish experiments, Shp2a-WT embryos
Method: as §4

[16] = target: T9, N-SH2 domain of SHP1, GST fusion on the SH2 domain microarray (human, UniProt P29350 1-106); test: SH2 domain microarray (GST fusions on nitrocellulose slides), Cy3 fluorescence
T9 construct: domain: N-SH2 domain; Array of 97 human SH2 domains; not shown: GST fusion partner
T9 sequence (looked up): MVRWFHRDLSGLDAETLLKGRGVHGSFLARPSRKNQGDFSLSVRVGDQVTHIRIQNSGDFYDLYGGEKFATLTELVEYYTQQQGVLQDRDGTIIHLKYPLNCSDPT

[17] = target: T10, N-SH2 domain of SHP2 (residues 2-111), recombinant (human, UniProt Q06124 2-111); test: fluorescence anisotropy direct binding
T10 construct: range 2-111; Expressed in E. coli from pET-26b and purified on Ni-NTA
T10 sequence (looked up): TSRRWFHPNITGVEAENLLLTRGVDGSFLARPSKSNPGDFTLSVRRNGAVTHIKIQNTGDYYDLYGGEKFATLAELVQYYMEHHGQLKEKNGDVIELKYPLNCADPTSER
Method: For the binding assays, the requested peptide amount (1 nM or 0.1 nM) was diluted in buffer (HEPES 10 mM, NaCl 150 mM, EDTA 1 mM, TCEP 1 mM, fluorescence buffer henceforth) and its anisotropy signal was recorded. The peptide was then titrated with increasing protein amounts, until the anisotropy signal reached a plateau at its maximum value, or up to a protein concentration where protein aggregation and consequent light scattering affected the anisotropy values (usually above 1 µM). The measurements of CF-labeled peptides were carried out using an excitation wavelength of 470 nm and collecting the anisotropy values at an emission wavelength of 520 nm. […] For the Cy3-labeled peptides, excitation and emission wavelengths of 520 and 560 nm were used.

[18] = target: T10, N-SH2 domain of SHP2 (residues 2-111), …; test: fluorescence anisotropy direct binding, labelled peptide titrated with protein

In the case of Cy3-GLN-pY-IDLDW [Cy3-P9W5], the Kd (N-SH2 domain of SHP2) is reported as 23 ± 2 nM, the “binding on SH2 domain array” value [1] is reported as “significant binding was observed only with the N-SH2 domain of SHP2” and the “binding to N-SH2 domain of SHP1” value (N-SH2 domain of SHP1) is reported as “negligible”.

With “CF-GLN-pY-IDLDW-GRKKRRQRRR ({5,6‑carboxyfluorescein″}-GLN[pY]IDLDWGRKKRRQRRR-NH2) [CF-P9W5-TAT]” the “cell uptake, covalent strategy” value (NIH3T3 cells [2]) was “efficiently obtained” and the cell killing (NIH3T3 cells [3]) was “did not cause any cell killing”.

CF-P9W5 (CF-GLN-pY-IDLDW) (peptide) gave a fold lower affinity than for the N-SH2 domain [4] of 1000 fold, a Kd [5] of 4200 nM and a Kd [6] of 4.6 nM.

For “SHP2Δ104 (SHP2 construct lacking the N-SH2 domain, residues 105-528)”, the “dephosphorylation of the phosphopeptide (malachite green phosphate release)” value (shortened to “dephosphorylation of the phosphopeptide”) [7] was “dephosphorylation was indeed observed, although to a lower extent than for other phosphopeptides”, the “dephosphorylation of the phosphopeptide” value [8] was “dephosphorylation was indeed observed, although to a lower extent than for other phosphopeptides” and the “dephosphorylation of the phosphopeptide” value [9] was “dephosphorylation was indeed observed, although to a lower extent than for other phosphopeptides”. The “dephosphorylation of the phosphopeptide” value (P8 (LN-pY-IDLDL)) was “dephosphorylation was indeed observed, although to a lower extent than for other phosphopeptides”, the “dephosphorylation of the phosphopeptide” value (P8W5 (LN-pY-IDLDW)) was “dephosphorylation was indeed observed, although to a lower extent than for other phosphopeptides” and the “dephosphorylation of the phosphopeptide” value [10] was “dephosphorylation was indeed observed, although to a lower extent than for other phosphopeptides”.

For `CC1(N)CCN(c2cnc(-c3cccc(Cl)c3Cl)c(N)n2)CC1` [SHP099], the “activity in pathogenic variants of SHP2” value [11] is listed as “significantly impaired activity”.

For `CC[C@H](C)[C@H](NC(=O)[C@H](Cc1ccc(C(F)(F)P(=O)(O)O)cc1)NC(=O)[C@H](CC(N)=O)NC(=O)[C@H](CC(C)C)NC(=O)CNC(C)=O)C(=O)N[C@@H](CC(=O)O)C(=O)N[C@@H](CC(C)C)C(=O)N[C@@H](CC(=O)O)C(=O)N[C@@H](Cc1c[nH]c2ccccc12)C(N)=O` [Peptide P9ND0W5, GLN-F2Pmp-IDLDW], the “degradation (HPLC)” value [12] was “No significant degradation”, the “degradation (HPLC)” value [13] was “No significant degradation” and the “rescue of the gastrulation phenotype” value ([14]; 5 µM peptide) was “significant”. For the same molecule, the survival of embryos ([14]; co-injection 0.3 µM, 3 µM and 5 µM, counted 1 dpf and 4 dpf) was “significant and dose dependent improvement”, the lethality of embryos ([15]; co-injection of 3 µM) was “not affected” and the “embryo shape at 11 hpf” value ([15]; co-injection with 3 µM peptide) was “no impact on their shape”.

B1: Cy3-P9W5 (Cy3-GLN-pY-IDLDW) (peptide)
peptide: XGLNYIDLDW
modifications: phosphotyrosine (pY) at position 4; N-terminal Cyanine 3 carboxylic acid (Cy3); C-terminal amide
For B1, the Kd [6] was 23 nM and the binding result [16] was “no binding (tested: peptide at 0.5, 5.0 and 50 nM)”.

For {CF}-GLNYIDLDL-NH2 [CF-P9Y0 (CF-GLN-Y-IDLDL), unphosphorylated analog of the labeled IRS-1 pY1172 peptide], the “fold lower affinity than the phosphorylated peptide CF-P9” value [17] was ~100 fold and the Kd [18] was 6600 nM.
